Source: patent US20130230533A1 (Regeneron, published 2013)

Columns and labels:
[1] = target: T1, Monomeric monkey CD48-mmH (monkey); test: SPR (Biacore), antibody captured by anti-Fc, CD48 in solution, 25 C
T1 construct: Soluble monkey CD48 with a myc-myc-hexa-histidine C-terminal tag; the whole entry is the construct; also called mfCD48-mmH
T1 chain: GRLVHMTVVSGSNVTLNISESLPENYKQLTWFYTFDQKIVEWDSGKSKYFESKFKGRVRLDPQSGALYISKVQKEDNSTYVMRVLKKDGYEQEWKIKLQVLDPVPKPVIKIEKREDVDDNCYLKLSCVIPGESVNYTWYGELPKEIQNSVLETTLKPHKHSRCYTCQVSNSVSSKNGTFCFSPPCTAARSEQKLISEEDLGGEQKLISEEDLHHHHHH
Description: (§1) Measurements were conducted on a T100-2 BIACORE™ instrument (Biacore Life Sciences division of GE Healthcare, Piscataway, N.J.). Antibodies (either with mouse Fc [designated “H2M” or “H3M”] or human IgG4 Fc [designated “H4H”]) were captured through an anti-Fc chip surface, and CD48 was flowed over the surface either in a monomeric (soluble CD48 expressed with a myc-myc-hexa-histidine C-terminal tag [mmH]) or dimeric (soluble CD48 expressed with a C-terminal Fc fusion [mFc]) format.
(§2) The soluble CD48 was applied to the flow cell in separate injections at different concentrations, and kinetic association (kₐ) and dissociation (kd) rate constants were determined by fits to the kinetic binding data using Biacore software. Binding dissociation equilibrium constants and dissociation half-times were calculated from the kinetic rate constants as: KD=kd/kₐ; t_{1/2}=(ln 2/kd) (units: ka=M⁻¹*s⁻¹; kd=s⁻¹; KD=M; T½=min) (Tables 3-6).

Dimeric monkey CD48-mFc [2] = target: T2, Dimeric monkey CD48-mFc (monkey); test: as above
T2 construct: Soluble monkey CD48 with a C-terminal Fc fusion [mFc]; the whole entry is the construct
T2 chain: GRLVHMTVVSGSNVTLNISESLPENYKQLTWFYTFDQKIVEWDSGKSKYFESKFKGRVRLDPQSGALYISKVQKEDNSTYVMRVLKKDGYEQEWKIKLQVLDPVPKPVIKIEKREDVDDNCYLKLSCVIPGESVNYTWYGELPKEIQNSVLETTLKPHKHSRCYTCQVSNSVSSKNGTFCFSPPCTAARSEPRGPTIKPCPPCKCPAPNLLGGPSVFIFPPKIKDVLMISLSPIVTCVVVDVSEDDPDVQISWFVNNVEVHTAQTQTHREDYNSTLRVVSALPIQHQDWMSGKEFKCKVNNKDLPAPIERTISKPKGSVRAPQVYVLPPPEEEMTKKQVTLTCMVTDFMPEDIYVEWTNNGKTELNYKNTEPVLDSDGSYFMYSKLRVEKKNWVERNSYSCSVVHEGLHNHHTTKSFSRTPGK
Description: as §1, §2

[3] = target: T1, Monomeric monkey CD48-mmH; test: SPR (Biacore), antibody captured by anti-Fc, CD48 in solution, 37 C
Description: as §1, §2

Dimeric monkey CD48-mFc [4] = target: T2, Dimeric monkey CD48-mFc; test: as above
Description: as §1, §2

Monomeric human CD48-mmH = target: T3, Monomeric human CD48-mmH (human); test: as above
T3 chain: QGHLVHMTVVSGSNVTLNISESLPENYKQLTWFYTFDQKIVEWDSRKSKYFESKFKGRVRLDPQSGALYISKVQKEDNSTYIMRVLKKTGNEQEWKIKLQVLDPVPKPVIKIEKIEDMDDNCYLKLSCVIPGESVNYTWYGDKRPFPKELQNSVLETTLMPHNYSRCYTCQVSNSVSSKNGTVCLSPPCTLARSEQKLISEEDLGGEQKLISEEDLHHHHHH
Description: as §1, §2

Dimeric human CD48-mFc = target: T4, Dimeric human CD48-mFc (human); test: as above
T4 construct: the whole entry is the construct; also called hCD48-mFc
T4 chain: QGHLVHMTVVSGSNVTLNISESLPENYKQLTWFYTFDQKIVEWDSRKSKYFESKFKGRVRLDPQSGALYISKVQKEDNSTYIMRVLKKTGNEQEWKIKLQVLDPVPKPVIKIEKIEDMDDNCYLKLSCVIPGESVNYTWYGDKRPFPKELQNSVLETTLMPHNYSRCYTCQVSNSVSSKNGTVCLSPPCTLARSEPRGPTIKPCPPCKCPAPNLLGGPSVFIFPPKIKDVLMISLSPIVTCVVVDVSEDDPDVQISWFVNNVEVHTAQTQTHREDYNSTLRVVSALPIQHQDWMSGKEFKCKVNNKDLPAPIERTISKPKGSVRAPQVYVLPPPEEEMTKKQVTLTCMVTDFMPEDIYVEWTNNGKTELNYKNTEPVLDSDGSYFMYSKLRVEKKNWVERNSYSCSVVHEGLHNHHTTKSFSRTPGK
Description: as §1, §2

B1: H4H1774P (antibody, human IgG4, V domains shown)
VH: QVQLVESGGGVVQPGRSLRLSCAASGFTFSNYGMHWVRQAPGKGLEWVAVIWYDESSKYYTDSVKGRFTISRDNSQNTLYLQMTSLRAEDTAVYYCARDRWTYSHYFEYWGQGTLVTVSS
VL: DIQMTQSPSSVSASVGDRVTITCRASQGISSWVAWYQQKPGKAPKLLIYAASSLQSGVPSRFSGSGSGTDFTLTISSLQPEDFATYYCQQANSFPRTFGQGTKVEIK
notes: Human IgG4 Fc (H4H)
- Kd [1]: 0.289 nM
- T½ [1]: 2.52 h
- koff [1]: 7.63e-05 s⁻¹
- kon [1]: 263000 M⁻¹ s⁻¹
- Kd (Dimeric monkey CD48-mFc [2]): 0.0525 nM
- T½ (Dimeric monkey CD48-mFc [2]): 9.3 h
- koff (Dimeric monkey CD48-mFc [2]): 2.07e-05 s⁻¹
- kon (Dimeric monkey CD48-mFc [2]): 395000 M⁻¹ s⁻¹
- Kd [3]: 1.36 nM
- T½ [3]: 0.717 h
- koff [3]: 0.000267 s⁻¹
- kon [3]: 197000 M⁻¹ s⁻¹
- Kd (Dimeric monkey CD48-mFc [4]): 0.107 nM
- T½ (Dimeric monkey CD48-mFc [4]): 3.57 h
- koff (Dimeric monkey CD48-mFc [4]): 5.4e-05 s⁻¹
- kon (Dimeric monkey CD48-mFc [4]): 508000 M⁻¹ s⁻¹
- Kd (Monomeric human CD48-mmH): 0.824 nM
- T½ (Monomeric human CD48-mmH): 1.8 h
- koff (Monomeric human CD48-mmH): 0.000107 s⁻¹
- kon (Monomeric human CD48-mmH): 130000 M⁻¹ s⁻¹
- Kd (Dimeric human CD48-mFc): 0.0439 nM
- T½ (Dimeric human CD48-mFc): 12.1 h
- koff (Dimeric human CD48-mFc): 1.6e-05 s⁻¹
- kon (Dimeric human CD48-mFc): 363000 M⁻¹ s⁻¹

B2: H4H1779P (antibody, human IgG4, V domains shown)
VH: QVQLVESGGGVVQPGRSLRLSCAASGFTFSNYGMHWVRQAPGKGLEWVAVIWYDESSKHYADSVKGRFTISRDNSQNTLYLQMTSLRAEDTAVYYCARDRWTYSHYFEYWGQGTLVTVSS
VL: DIQMTQSPSSVSASVGDRVTITCRASQDISSWVAWYQQKPGKAPKLLIYAASSLQSGVPSRFSGSGSGTDFTLTISSLQPEDFATYYCQQANSFPRTFGQGTKVEIK
notes: Human IgG4 Fc (H4H)
- Kd [1]: 0.375 nM
- T½ [1]: 1.7 h
- koff [1]: 0.000113 s⁻¹
- kon [1]: 301000 M⁻¹ s⁻¹
- Kd (Dimeric monkey CD48-mFc [2]): 0.0606 nM
- T½ (Dimeric monkey CD48-mFc [2]): 6.07 h
- koff (Dimeric monkey CD48-mFc [2]): 3.17e-05 s⁻¹
- kon (Dimeric monkey CD48-mFc [2]): 522000 M⁻¹ s⁻¹
- Kd [3]: 1.04 nM
- T½ [3]: 0.667 h
- koff [3]: 0.000289 s⁻¹
- kon [3]: 277000 M⁻¹ s⁻¹
- Kd (Dimeric monkey CD48-mFc [4]): 0.0829 nM
- T½ (Dimeric monkey CD48-mFc [4]): 3.22 h
- koff (Dimeric monkey CD48-mFc [4]): 5.98e-05 s⁻¹
- kon (Dimeric monkey CD48-mFc [4]): 721000 M⁻¹ s⁻¹
- Kd (Monomeric human CD48-mmH): 0.495 nM
- T½ (Monomeric human CD48-mmH): 1.88 h
- koff (Monomeric human CD48-mmH): 0.000102 s⁻¹
- kon (Monomeric human CD48-mmH): 207000 M⁻¹ s⁻¹
- Kd (Dimeric human CD48-mFc): 0.0594 nM
- T½ (Dimeric human CD48-mFc): 4.2 h
- koff (Dimeric human CD48-mFc): 4.59e-05 s⁻¹
- kon (Dimeric human CD48-mFc): 772000 M⁻¹ s⁻¹

B3: H4H1775P (antibody, human IgG4, V domains shown)
VH: QVQLVESGGGVVQPGRSLRLSCAASGFTFSNYGMHWVRQAPGKGLEWVAVIWYDESGKHYADSVKGRFTISRDNSQNTLYLQMTSLRAEDTAVYYCARDRWTYSHYFEYWGQGTLVTVSS
VL: DIQMTQSPSSVSASVGDRVTITCRASQDISSWVAWYQQKPGKAPKLLIYAASSLQSGVPSRFSGSGSGTDFTLTISSLQPEDFATYYCQQANSFPRTFGQGTKVEIK
notes: Human IgG4 Fc (H4H)
- Kd [1]: 0.14 nM
- T½ [1]: 4.73 h
- koff [1]: 4.07e-05 s⁻¹
- kon [1]: 291000 M⁻¹ s⁻¹
- Kd (Dimeric monkey CD48-mFc [2]): 0.0135 nM
- T½ (Dimeric monkey CD48-mFc [2]): 29.2 h
- koff (Dimeric monkey CD48-mFc [2]): 6.6e-06 s⁻¹
- kon (Dimeric monkey CD48-mFc [2]): 488000 M⁻¹ s⁻¹
- Kd [3]: 0.498 nM
- T½ [3]: 1.5 h
- koff [3]: 0.000129 s⁻¹
- kon [3]: 260000 M⁻¹ s⁻¹
- Kd (Dimeric monkey CD48-mFc [4]): 0.0593 nM
- T½ (Dimeric monkey CD48-mFc [4]): 4.85 h
- koff (Dimeric monkey CD48-mFc [4]): 3.97e-05 s⁻¹
- kon (Dimeric monkey CD48-mFc [4]): 669000 M⁻¹ s⁻¹
- Kd (Monomeric human CD48-mmH): 0.536 nM
- T½ (Monomeric human CD48-mmH): 2.03 h
- koff (Monomeric human CD48-mmH): 9.48e-05 s⁻¹
- kon (Monomeric human CD48-mmH): 177000 M⁻¹ s⁻¹
- Kd (Dimeric human CD48-mFc): 0.0434 nM
- T½ (Dimeric human CD48-mFc): 8.48 h
- koff (Dimeric human CD48-mFc): 2.27e-05 s⁻¹
- kon (Dimeric human CD48-mFc): 522000 M⁻¹ s⁻¹

B4: H4H1772P (antibody, human IgG4, V domains shown)
VH: EVQLVESGGGLVQPGGSLRLSCAASGFTFSSYWMSWVRQAPGKGLEWVANIMRDGSEKYYVDSVKGRFTISRDNAKNSLYLQMNSLRGEDTAVYYCARERGFYTNYGNWFDPWGQGTLVTVSS
VL: DIVMTQSPLSLTVTPGESASISCRSSQSLLHSYGYNSLDWYLQKPGQSPQFLIYLVSNRASGVPDRFSGSGSGTDFTLKISRVEAEDVGVYYCMQVLQTPYTFGQGTKLEIK
notes: Human IgG4 Fc (H4H)
- Kd [1]: 1.1 nM
- T½ [1]: 0.383 h
- koff [1]: 0.000508 s⁻¹
- kon [1]: 461000 M⁻¹ s⁻¹
- Kd (Dimeric monkey CD48-mFc [2]): 0.0968 nM
- T½ (Dimeric monkey CD48-mFc [2]): 3.83 h
- koff (Dimeric monkey CD48-mFc [2]): 5.02e-05 s⁻¹
- kon (Dimeric monkey CD48-mFc [2]): 519000 M⁻¹ s⁻¹
- Kd [3]: 4.53 nM
- T½ [3]: 0.133 h
- koff [3]: 0.00145 s⁻¹
- kon [3]: 320000 M⁻¹ s⁻¹
- Kd (Dimeric monkey CD48-mFc [4]): 0.0947 nM
- T½ (Dimeric monkey CD48-mFc [4]): 2.63 h
- koff (Dimeric monkey CD48-mFc [4]): 7.31e-05 s⁻¹
- kon (Dimeric monkey CD48-mFc [4]): 772000 M⁻¹ s⁻¹
- Kd (Monomeric human CD48-mmH): 5.94 nM
- T½ (Monomeric human CD48-mmH): 0.183 h
- koff (Monomeric human CD48-mmH): 0.00102 s⁻¹
- kon (Monomeric human CD48-mmH): 172000 M⁻¹ s⁻¹
- Kd (Dimeric human CD48-mFc): 0.065 nM
- T½ (Dimeric human CD48-mFc): 3.22 h
- koff (Dimeric human CD48-mFc): 5.98e-05 s⁻¹
- kon (Dimeric human CD48-mFc): 920000 M⁻¹ s⁻¹

B5: H4H1771P (antibody, human IgG4, V domains shown)
VH: QVQLVQSGTEVKKPGASVKVSCKVSGYTLIDLSIHWVRQAPGEGLEWMGGFDPEESETIYAQKFQGRVTMTEDTSTDTAYMELSSLRSEDTAVYYCVTEPIFGILIHESWGQGTLVTVSS
VL: DIVMTQTPLSSPVTLGQPASISCRSSHSPVHSNGHTYLSWLQQRPGQPPRILIYKISRRFSGVPDRFSGSGAGTDFTLKISRVETEDVGIYYCMQASQFPWTFGQGTKVEIK
notes: Human IgG4 Fc (H4H)
- Kd [1]: 0.453 nM
- T½ [1]: 0.4 h
- koff [1]: 0.000477 s⁻¹
- kon [1]: 1.05e+06 M⁻¹ s⁻¹
- Kd (Dimeric monkey CD48-mFc [2]): 0.0587 nM
- T½ (Dimeric monkey CD48-mFc [2]): 3.5 h
- koff (Dimeric monkey CD48-mFc [2]): 5.51e-05 s⁻¹
- kon (Dimeric monkey CD48-mFc [2]): 939000 M⁻¹ s⁻¹
- Kd [3]: 1.34 nM
- T½ [3]: 0.217 h
- koff [3]: 0.000877 s⁻¹
- kon [3]: 657000 M⁻¹ s⁻¹
- Kd (Dimeric monkey CD48-mFc [4]): 0.0621 nM
- T½ (Dimeric monkey CD48-mFc [4]): 1.88 h
- koff (Dimeric monkey CD48-mFc [4]): 0.000102 s⁻¹
- kon (Dimeric monkey CD48-mFc [4]): 1.64e+06 M⁻¹ s⁻¹
- Kd (Monomeric human CD48-mmH): 0.488 nM
- T½ (Monomeric human CD48-mmH): 0.35 h
- koff (Monomeric human CD48-mmH): 0.000547 s⁻¹
- kon (Monomeric human CD48-mmH): 1.12e+06 M⁻¹ s⁻¹
- Kd (Dimeric human CD48-mFc): 0.0166 nM
- T½ (Dimeric human CD48-mFc): 4 h
- koff (Dimeric human CD48-mFc): 4.81e-05 s⁻¹
- kon (Dimeric human CD48-mFc): 2.89e+06 M⁻¹ s⁻¹
